Target: HLA-A*02:01 (Homo sapiens, UniProt P04439, D140Y/D185E/D98H/E176V/E277Q/G131W/G231S/I119V/I121R/I166T/I218V/L300P/L318F/N151K/N90K/P208A/P217A/Q86G/Q94H/R138H/R169H/T345S)
Assay: MHC binding assay (UV-ligand exchange, anti-β2m ELISA)
Conditions: peptide exchange yield, binding to HLA-A*02:01
From the text: Candidate peptides for T cell based therapies according to the present invention were further tested for their MHC binding capacity (affinity). The individual peptide-MHC complexes were produced by UV-ligand exchange, where a UV-sensitive peptide is cleaved upon UV-irradiation and exchanged with the peptide of interest as analyzed. Only peptide candidates that can effectively bind and stabilize the peptide-receptive MHC molecules prevent dissociation of the MHC complexes. To determine the yield of the exchange reaction, an ELISA was performed based on the detection of the light chain (β2m) of stabilized MHC complexes. The assay was performed as generally described in Rodenko et al. (Rodenko et al., 2006).
96 well MAXISorp plates (NUNC) were coated over night with 2 μg/ml streptavidin in PBS at room temperature, washed 4× and blocked for 1 h at 37° C. in 2% BSA containing blocking buffer. Refolded HLA-A*02:01/MLA-001 monomers served as standards, covering the range of 15-500 ng/ml. Peptide-MHC monomers of the UV-exchange reaction were diluted 100-fold in blocking buffer. Samples were incubated for 1 h at 37° C., washed four times, incubated with 2 μg/ml HRP conjugated anti-β2m for 1 h at 37° C., washed again and detected with TMB solution that is stopped with […]. Absorption was measured at 450 nm. Candidate peptides that show a high exchange yield (preferably higher than 50%, most preferred higher than 75%) are generally preferred for a generation and production of antibodies or fragments thereof, and/or T cell receptors or fragments thereof, as they show sufficient avidity to the MHC molecules and prevent dissociation of the MHC complexes.

Row | Substance | Peptide exchange
1 | 1 (ILDSTTIEI; peptide displayed by HLA-A*02) [compound 1] | ++++ (≥75% = ++++)
2 | 2 (RLLEGDFSL; peptide displayed by HLA-A*02) [compound 2] | ++++ (≥75% = ++++)
3 | 4 (YVWDRTELL; peptide displayed by HLA-A*02) [compound 4] | ++++ (≥75% = ++++)
4 | 5 (ALPQFFNDV; peptide displayed by HLA-A*02) [compound 5] | ++++ (≥75% = ++++)
5 | 9 (SLDDSLNEL; peptide displayed by HLA-A*02) [compound 9] | +++ (≥50% = +++)
6 | 10 (FLGEDISNFL; peptide displayed by HLA-A*02) [compound 10] | ++++ (≥75% = ++++)
7 | 11 (GLVDGSSVTV; peptide displayed by HLA-A*02) [compound 11] | ++++ (≥75% = ++++)
8 | 12 (FVDEHTIDI; peptide displayed by HLA-A*02) [compound 12] | +++ (≥50% = +++)
9 | 13 (VLMDGTLKQV; peptide displayed by HLA-A*02) [compound 13] | ++++ (≥75% = ++++)
10 | 14 (YIYDGKDMSSL; peptide displayed by HLA-A*02) [compound 14] | +++ (≥50% = +++)
11 | 15 (VLDDTLVIF; peptide displayed by HLA-A*02) [compound 15] | +++ (≥50% = +++)
12 | 16 (KLISDMGKDVSA; peptide displayed by HLA-A*02) [compound 16] | +++ (≥50% = +++)
13 | 17 (NVDSTILNL; peptide displayed by HLA-A*02) [compound 17] | ++++ (≥75% = ++++)
14 | 18 (ILDEAKDISF; peptide displayed by HLA-A*02) [compound 18] | +++ (≥50% = +++)
15 | 19 (RLLDTTDVYLL; peptide displayed by HLA-A*02) [compound 19] | ++++ (≥75% = ++++)
16 | 20 (SLFAYPLPDV; peptide displayed by HLA-A*02) [compound 20] | ++++ (≥75% = ++++)
17 | 21 (FLNLFDHTL; peptide displayed by HLA-A*02) [compound 21] | ++++ (≥75% = ++++)
18 | 22 (HMIDLTIHL; peptide displayed by HLA-A*02) [compound 22] | +++ (≥50% = +++)
19 | 23 (FLGPIVDL; peptide displayed by HLA-A*02) [compound 23] | ++++ (≥75% = ++++)
20 | 24 (QLLGRDISL; peptide displayed by HLA-A*02) [compound 24] | ++++ (≥75% = ++++)
21 | 25 (FMNDRSFIL; peptide displayed by HLA-A*02) [compound 25] | ++++ (≥75% = ++++)
22 | 26 (ILYDGSNIQL; peptide displayed by HLA-A*02) [compound 26] | ++++ (≥75% = ++++)
23 | 27 (YLFEDISQL; peptide displayed by HLA-A*02) [compound 27] | ++++ (≥75% = ++++)

Row | Substance | Peptide exchange
24 | 28 (FLLDGTDMFHM; peptide displayed by HLA-A*02) [compound 28] | +++ (≥50% = +++)
25 | 29 (KLLDLTVRI; peptide displayed by HLA-A*02) [compound 29] | ++++ (≥75% = ++++)
26 | 30 (QLMEKVQDV; peptide displayed by HLA-A*02) [compound 30] | +++ (≥50% = +++)
27 | 31 (TLIDATWLV; peptide displayed by HLA-A*02) [compound 31] | ++++ (≥75% = ++++)
28 | 32 (ALADLTGTVVNL; peptide displayed by HLA-A*02) [compound 32] | ++++ (≥75% = ++++)
29 | 33 (ILFDLTHRV; peptide displayed by HLA-A*02) [compound 33] | ++++ (≥75% = ++++)
30 | 34 (SLLDGSESAKL; peptide displayed by HLA-A*02) [compound 34] | ++++ (≥75% = ++++)
31 | 35 (SLRDGTEVV; peptide displayed by HLA-A*02) [compound 35] | +++ (≥50% = +++)
32 | 36 (SLYDFTGEQMAA; peptide displayed by HLA-A*02) [compound 36] | +++ (≥50% = +++)
33 | 37 (AIDDTAARL; peptide displayed by HLA-A*02) [compound 37] | +++ (≥50% = +++)
34 | 38 (AVDGTDARL; peptide displayed by HLA-A*02) [compound 38] | +++ (≥50% = +++)
35 | 39 (AVFDQTVTVI; peptide displayed by HLA-A*02) [compound 39] | +++ (≥50% = +++)
36 | 40 (FLDQTDETL; peptide displayed by HLA-A*02) [compound 40] | +++ (≥50% = +++)
37 | 41 (FLDTSTADV; peptide displayed by HLA-A*02) [compound 41] | ++++ (≥75% = ++++)
38 | 42 (IQDTSHLAV; peptide displayed by HLA-A*02) [compound 42] | +++ (≥50% = +++)
39 | 43 (KLLNDLTSI; peptide displayed by HLA-A*02) [compound 43] | ++++ (≥75% = ++++)
40 | 44 (LLDATHQI; peptide displayed by HLA-A*02) [compound 44] | ++++ (≥75% = ++++)
41 | 45 (SLFDDSFSL; peptide displayed by HLA-A*02) [compound 45] | ++++ (≥75% = ++++)
42 | 46 (SLSDVSQAV; peptide displayed by HLA-A*02) [compound 46] | +++ (≥50% = +++)
43 | 48 (AIYHDITGISV; peptide displayed by HLA-A*02) [compound 48] | +++ (≥50% = +++)
44 | 49 (ALDDYTITF; peptide displayed by HLA-A*02) [compound 49] | ++++ (≥75% = ++++)
45 | 50 (ALYDSTRELL; peptide displayed by HLA-A*02) [compound 50] | ++++ (≥75% = ++++)
46 | 51 (HLCNHDVSL; peptide displayed by HLA-A*02) [compound 51] | ++++ (≥75% = ++++)

Row | Substance | Peptide exchange
47 | 52 (ILFDDSVFTL; peptide displayed by HLA-A*02) [compound 52] | ++++ (≥75% = ++++)
48 | 53 (ILTDITGHDV; peptide displayed by HLA-A*02) [compound 53] | +++ (≥50% = +++)
49 | 54 (KLEERVYDV; peptide displayed by HLA-A*02) [compound 54] | ++++ (≥75% = ++++)
50 | 55 (KTWDQSIAL; peptide displayed by HLA-A*02) [compound 55] | ++++ (≥75% = ++++)
51 | 56 (LLDSTAHLL; peptide displayed by HLA-A*02) [compound 56] | ++++ (≥75% = ++++)
52 | 57 (SLDISLPNL; peptide displayed by HLA-A*02) [compound 57] | ++++ (≥75% = ++++)
53 | 58 (SQDASLLKV; peptide displayed by HLA-A*02) [compound 58] | +++ (≥50% = +++)
54 | 59 (SQTDLSPAL; peptide displayed by HLA-A*02) [compound 59] | ++++ (≥75% = ++++)
55 | 60 (TLDITIVNL; peptide displayed by HLA-A*02) [compound 60] | ++++ (≥75% = ++++)
56 | 61 (FISDFTMTI; peptide displayed by HLA-A*02) [compound 61] | ++++ (≥75% = ++++)
57 | 62 (FLKDVTAQI; peptide displayed by HLA-A*02) [compound 62] | ++++ (≥75% = ++++)
58 | 63 (GLDRTQLVNV; peptide displayed by HLA-A*02) [compound 63] | ++++ (≥75% = ++++)
59 | 64 (ILFDPDNSSAL; peptide displayed by HLA-A*02) [compound 64] | ++++ (≥75% = ++++)
60 | 66 (LLDDQTVTF; peptide displayed by HLA-A*02) [compound 66] | +++ (≥50% = +++)
61 | 67 (LLDTTDVYL; peptide displayed by HLA-A*02) [compound 67] | +++ (≥50% = +++)
62 | 68 (RLQDTTIGL; peptide displayed by HLA-A*02) [compound 68] | ++++ (≥75% = ++++)
63 | 69 (SLLDENDVSSYL; peptide displayed by HLA-A*02) [compound 69] | ++++ (≥75% = ++++)
64 | 70 (SMASFLKDV; peptide displayed by HLA-A*02) [compound 70] | ++++ (≥75% = ++++)
65 | 71 (YLGAVFDL; peptide displayed by HLA-A*02) [compound 71] | ++++ (≥75% = ++++)
66 | 72 (ALDSTNSEL; peptide displayed by HLA-A*02) [compound 72] | ++++ (≥75% = ++++)
67 | 73 (ALMDVSQNV; peptide displayed by HLA-A*02) [compound 73] | ++++ (≥75% = ++++)
